Assay results from IntAct's records for PubMed 21516123.

B1: Peroxiredoxin-1 (Mus musculus), P35700 (parent)
chain: MSSGNAKIGYPAPNFKATAVMPDGQFKDISLSEYKGKYVVFFFYPLDFTFVCPTEIIAFSDRADEFKKLNCQVIGASVDSHFCHLAWINTPKKQGGLGPMNIPLISDPKRTIAQDYGVLKADEGISFRGLFIIDDKGILRQITINDLPVGRSVDEIIRLVQAFQFTDKHGEVCPAGWKPGSDTIKPDVNKSKEYFSKQK
partner: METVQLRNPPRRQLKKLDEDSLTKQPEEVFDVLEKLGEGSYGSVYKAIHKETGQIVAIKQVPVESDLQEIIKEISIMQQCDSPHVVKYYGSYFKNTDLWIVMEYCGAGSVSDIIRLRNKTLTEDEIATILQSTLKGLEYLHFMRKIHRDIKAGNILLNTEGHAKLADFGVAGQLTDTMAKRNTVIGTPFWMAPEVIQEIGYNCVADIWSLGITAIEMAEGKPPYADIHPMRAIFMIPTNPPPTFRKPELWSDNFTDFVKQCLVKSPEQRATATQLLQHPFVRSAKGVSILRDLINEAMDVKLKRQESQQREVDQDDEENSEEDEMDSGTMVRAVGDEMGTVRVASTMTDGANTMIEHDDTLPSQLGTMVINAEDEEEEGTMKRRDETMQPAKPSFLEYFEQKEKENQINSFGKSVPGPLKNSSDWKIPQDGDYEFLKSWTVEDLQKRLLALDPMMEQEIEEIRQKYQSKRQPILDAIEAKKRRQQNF

Variants of: B1
Settings: with stk4_human STK4, Q13043

Row | Variant | effect of a mutation on the interaction
1 | MSSGNAKIGYPAPNFKATAVMPDGQFKDISLSEYKGKYVVFFFYPLDFTFVSPTEIIAFSDRADEFKKLNCQVIGASVDSHFCHLAWINTPKKQGGLGPMNIPLISDPKRTIAQDYGVLKADEGISFRGLFIIDDKGILRQITINDLPVGRSVDEIIRLVQAFQFTDKHGEVCPAGWKPGSDTIKPDVNKSKEYFSKQK [C52S] | disrupting interaction
2 | MSSGNAKIGYPAPNFKATAVMPDGQFKDISLSEYKGKYVVFFFYPLDFTFVCPTEIIAFSDRADEFKKLNCQVIGASVDSHFSHLAWINTPKKQGGLGPMNIPLISDPKRTIAQDYGVLKADEGISFRGLFIIDDKGILRQITINDLPVGRSVDEIIRLVQAFQFTDKHGEVCPAGWKPGSDTIKPDVNKSKEYFSKQK [C83S] | decreasing interaction
3 | MSSGNAKIGYPAPNFKATAVMPDGQFKDISLSEYKGKYVVFFFYPLDFTFVCPTEIIAFSDRADEFKKLNCQVIGASVDSHFCHLAWINTPKKQGGLGPMNIPLISDPKRTIAQDYGVLKADEGISFRGLFIIDDKGILRQITINDLPVGRSVDEIIRLVQAFQFTDKHGEVSPAGWKPGSDTIKPDVNKSKEYFSKQK [C173S] | increasing interaction
